Test results taken from the supplement of paper PMC7877785.
± gives the uncertainty stated by the source.

Experiment: self-splicing fitness, log relative to wild type (ln ratio); higher = more splicing; Tetrahymena group I intron in knt gene, E. coli kanamycin selection, DiMSum; sequences stand for … in CUCUCU…GGAGGGAAAAGUUAUCAGGCAUGCACCUGGUAGCUAGUCUUUAAACCAAUAGAUUGCAUCGGUUUAAAAGGCAAGACCGUCAAAUUGCGGGAAAGGGGUCAACAGCCGUUCAGUACCAAGUCUCAGGGGAAACUUUGAGAUGGCCUUGCAAAGGGUAUGGUAAUAAGCUGACGGACAUGGUCCUAACCACGCAGCCAAGUCCUAAGUCAACAGAUCUUCUGUUGAUAUGGAUGCAGUUCACAGACUAAAUGUCGGUCGGGGAAGAUGUAUUCUUCUCAUAAGAUAUAGUCGGACCUCUCCUUAAUGGGAGCUAGCGGAUGAAGUGAUGCAACACUGGAGCCGCUGGGAACUAAUUUGUAUGCGAAAGUAUAUUGAUUAGUUUUGGAGUACUCGUGGUCG
Procedure, shortened: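 A randomised library covering all eight P1ex-region intron nucleotides was built with the intron in the knt kanamycin-resistance gene on pET-22b(+) and held in E. coli BL21(DE3). Cells were grown overnight at 37°C or 30°C on LB agar, with or without 25 μg/mL kanamycin, plus 100 μg/mL carbenicillin, 50 μM IPTG and 0.2% rhamnose, and pooled colonies were amplicon-sequenced on an Illumina HiSeq 2500. DiMSum fitness is the error-weighted combination of wild-type-normalised replicate fold changes, kanamycin versus none.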

Row | Sequence | self-splicing fitness (ln) (30 °C) | self-splicing fitness (ln) (37 °C)
1 | CGUCAGCAAUAUUACGGUUG | -0.45 ± 0.065 | -0.256 ± 0.081
2 | CGCCAGCAAUAUUACGAACC | -2.23 ± 0.22 | -2.02 ± 0.43
3 | CCCAAGCAAUAUUACGCGGC | -2.8 ± 0.2 | -2.38 ± 0.23
4 | UAAUAGCAAUAUUACGCAUA | -1.13 ± 0.18 | -0.681 ± 0.15
5 | AUACAGCAAUAUUACGCAUA | -1.54 ± 0.12 | -0.743 ± 0.13
6 | UGUAAGCAAUAUUACGAUGA | -0.986 ± 0.098 | -0.393 ± 0.13
7 | GCUUAGCAAUAUUACGUGCA | -1.11 ± 0.11 | -0.319 ± 0.13
8 | GGGCAGCAAUAUUACGUUAG | -1.81 ± 0.093 | -0.462 ± 0.13
9 | CAUUAGCAAUAUUACGUUAC | -3.48 ± 0.2 | -2.17 ± 0.25
10 | UGGUAGCAAUAUUACGUAUA | -1.51 ± 0.14 | -0.00881 ± 0.14
11 | AUUUAGCAAUAUUACGGACG | -2.26 ± 0.24 | -1.75 ± 0.24
12 | ACUAAGCAAUAUUACGAGCC | -3.72 ± 0.4 | -1.62 ± 0.33
13 | GCCGAGCAAUAUUACGUAGG | -3.39 ± 0.21 | -0.729 ± 0.25
14 | UCAUAGCAAUAUUACGGCGG | -0.555 ± 0.059 | 0.417 ± 0.074
15 | AGAAAGCAAUAUUACGCAAU | -2.18 ± 0.072 | -0.965 ± 0.075
16 | GUGCAGCAAUAUUACGGACG | -2.47 ± 0.1 | -0.949 ± 0.11
17 | AGCUAGCAAUAUUACGGCCA | -0.689 ± 0.15 | 0.469 ± 0.18
18 | UGGCAGCAAUAUUACGCAGU | -4.13 ± 0.36 | -2.57 ± 0.21
19 | CUAUAGCAAUAUUACGAAUC | -2.05 ± 0.36 | -1.9 ± 0.33
20 | ACCUAGCAAUAUUACGAAGA | -2.01 ± 0.19 | -1.77 ± 0.13
21 | UUUUAGCAAUAUUACGGGAG | -0.728 ± 0.16 | -1.79 ± 0.29
22 | CAUGAGCAAUAUUACGCCGU | -3.93 ± 0.37 | -3.36 ± 0.26
23 | AGAUAGCAAUAUUACGUGAA | -1.95 ± 0.082 | -1.85 ± 0.12
24 | UGGAAGCAAUAUUACGCAGC | -2.22 ± 0.42 | -2.6 ± 0.26
25 | AGUUAGCAAUAUUACGAAAC |  | -0.856 ± 0.39
26 | GCCUAGCAAUAUUACGGCCC | -3.4 ± 0.48 | -0.535 ± 0.27

Row | Sequence | self-splicing fitness (ln) (30 °C) | self-splicing fitness (ln) (37 °C)
27 | AGGAAGCAAUAUUACGUCGC | -2.62 ± 0.28 | -2.06 ± 0.24
28 | AGGCAGCAAUAUUACGGCCU | -3.36 ± 0.18 | -2.37 ± 0.24
29 | GAUCAGCAAUAUUACGUGAA | -0.745 ± 0.062 | -0.0764 ± 0.076
30 | GUGGAGCAAUAUUACGCACG | -2.63 ± 0.29 | -2.32 ± 0.25
31 | ACGUAGCAAUAUUACGAAGC |  | -1.96 ± 0.41
32 | ACGUAGCAAUAUUACGGCCG | -0.0843 ± 0.13 | -0.11 ± 0.19
33 | AAUCAGCAAUAUUACGUGAU | -0.823 ± 0.048 | -0.268 ± 0.067
34 | AUAUAGCAAUAUUACGCAGC | -3.62 ± 0.43 | -1.92 ± 0.27
35 | AACAAGCAAUAUUACGUCCG | -1.26 ± 0.067 | -0.444 ± 0.085
36 | CCGGAGCAAUAUUACGCCGA | -3.86 ± 0.41 | 
37 | AUUAAGCAAUAUUACGUUAA | -2.52 ± 0.15 | -1.35 ± 0.12
38 | AGUAAGCAAUAUUACGGGCC | -1.48 ± 0.2 | -0.26 ± 0.15
39 | GACUAGCAAUAUUACGCGUA | -0.78 ± 0.11 | -0.344 ± 0.097
40 | GCCGAGCAAUAUUACGUAGA | -2.74 ± 0.13 | -2.07 ± 0.14
41 | CGGUAGCAAUAUUACGCUUG | -2.07 ± 0.14 | -0.206 ± 0.14
42 | UACAAGCAAUAUUACGGAGU | -4.15 ± 0.29 | -1.71 ± 0.16
43 | CGCAAGCAAUAUUACGGGAC | -3.18 ± 0.31 | -2.52 ± 0.29
44 | GCGAAGCAAUAUUACGAGGC |  | -1.65 ± 0.45
45 | GUUGAGCAAUAUUACGUAUA | -2.17 ± 0.29 | 
46 | UUGCAGCAAUAUUACGACUU | -0.403 ± 0.1 | -0.588 ± 0.08
47 | GGACAGCAAUAUUACGGUUA | -0.28 ± 0.097 | 0.525 ± 0.11
48 | GAUGAGCAAUAUUACGACAG | -2.31 ± 0.47 | 
49 | GAUGAGCAAUAUUACGCUCC | -3 ± 0.3 | 
50 | UAAUAGCAAUAUUACGUUAA | -3.02 ± 0.23 | -2.53 ± 0.19
51 | GCCGAGCAAUAUUACGUACC | -2.15 ± 0.13 | -0.678 ± 0.16
52 | GGAUAGCAAUAUUACGUACA | -1.42 ± 0.097 | -0.395 ± 0.098

Row | Sequence | self-splicing fitness (ln) (30 °C) | self-splicing fitness (ln) (37 °C)
53 | UGAGAGCAAUAUUACGUCCG | -1.25 ± 0.23 | -1.19 ± 0.42
54 | UCACAGCAAUAUUACGUGUG | -4.09 ± 0.15 | -2.13 ± 0.1
55 | AGGCAGCAAUAUUACGCGCC | -2.4 ± 0.32 | -0.401 ± 0.29
56 | CACGAGCAAUAUUACGGGCU | -4.17 ± 0.22 | -3.5 ± 0.46
57 | UCCUAGCAAUAUUACGUUGG | -3.74 ± 0.27 | -2.35 ± 0.2
58 | UAAAAGCAAUAUUACGGAAU | -3.12 ± 0.17 | -2.18 ± 0.2
59 | CAGAAGCAAUAUUACGGCUC | -2.64 ± 0.28 | -0.31 ± 0.21
60 | CAGUAGCAAUAUUACGUCAG | -0.873 ± 0.07 | 0.623 ± 0.095
61 | GUCUAGCAAUAUUACGCAGG | -3.11 ± 0.3 | -3.31 ± 0.37
62 | AACAAGCAAUAUUACGGGCG | -0.896 ± 0.075 | -1.08 ± 0.089
63 | GCGCAGCAAUAUUACGCUGG | -2.1 ± 0.1 | -2.13 ± 0.16
64 | CUGGAGCAAUAUUACGAACG | -0.869 ± 0.15 | 0.129 ± 0.16
65 | UCGCAGCAAUAUUACGUUUA | -1.78 ± 0.12 | -1.11 ± 0.11
66 | CAAGAGCAAUAUUACGGAGA | -2.57 ± 0.28 | -1.91 ± 0.22
67 | ACUUAGCAAUAUUACGCACG | -1.55 ± 0.1 | -0.683 ± 0.13
68 | GUUAAGCAAUAUUACGAUUA | -1.04 ± 0.13 | -0.324 ± 0.11
69 | GCCUAGCAAUAUUACGAUAU | -2.23 ± 0.11 | -0.907 ± 0.097
70 | GCUAAGCAAUAUUACGCCUA | -1.55 ± 0.3 | -0.198 ± 0.2
71 | GUGGAGCAAUAUUACGAAUU |  | -3.14 ± 0.47
72 | UUACAGCAAUAUUACGACCA | -0.658 ± 0.14 | -0.854 ± 0.18
73 | CGUUAGCAAUAUUACGCUGA | -2.78 ± 0.3 | -2.66 ± 0.29
74 | AGAAAGCAAUAUUACGGGAA | -2.72 ± 0.13 | -1.73 ± 0.12
75 | UAUGAGCAAUAUUACGUGAG | -2.91 ± 0.14 | -2.74 ± 0.23
76 | GCCCAGCAAUAUUACGAAAG | -2.48 ± 0.12 | -2.07 ± 0.19
77 | CCAAAGCAAUAUUACGCUAU | -3.7 ± 0.19 | -2.39 ± 0.23
